pKd: −log10 of the molar value.
What was measured:
[1] = target: 5C.C7 TCR (as measured by surface plasmon resonance) (mouse); assay: SPR
[2] = target: 5C.C7 TCR on 5C.C7 T cell blasts (mouse) (UniProt A2KF29); assay: flow cytometry; 5C.C7 T cell blasts, one hour at room temperature after staining
[3] = target: 5C.C7 TCR on 5C.C7 T cell blasts (mouse) (UniProt A2KF29); assay: cell-based or functional assay
[4] = target: 5C.C7 TCR on 5C.C7 T cell blasts (mouse) (UniProt A2KF29); assay: flow cytometry; 2 µM BioMCC(ASA)-I-Ek photocrosslinked to 5C.C7 T cell blasts, against about 38,000 TCRs per T cell
[5] = target: OT-1 TCR on naïve OT-1 T cells (mouse); assay: flow cytometry; naïve OT-1 T cells, pMHC 1 µM, UV photocrosslinking, PE-SAv

102S-I-Ek, sequence (P04224 26-216): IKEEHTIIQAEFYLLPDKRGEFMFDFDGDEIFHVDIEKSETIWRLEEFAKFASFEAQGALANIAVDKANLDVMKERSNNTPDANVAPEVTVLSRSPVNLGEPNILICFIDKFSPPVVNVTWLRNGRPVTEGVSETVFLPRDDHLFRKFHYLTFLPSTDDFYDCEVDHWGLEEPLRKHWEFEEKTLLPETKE
MCC(Cy5)-I-Ek, sequence (P04224 26-216): as above
PE-conjugated MCC-I-Ek tetramer, sequence (P04224 26-216): as above
OVA(ASA)-Kb, sequence (P01901 22-305): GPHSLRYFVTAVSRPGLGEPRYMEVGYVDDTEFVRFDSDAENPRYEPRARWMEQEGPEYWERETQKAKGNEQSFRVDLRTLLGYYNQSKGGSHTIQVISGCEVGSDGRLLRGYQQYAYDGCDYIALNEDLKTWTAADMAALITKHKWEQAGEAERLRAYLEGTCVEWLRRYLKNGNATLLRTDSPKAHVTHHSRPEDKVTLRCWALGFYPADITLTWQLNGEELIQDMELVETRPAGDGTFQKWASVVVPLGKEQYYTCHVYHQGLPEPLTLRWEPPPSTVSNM

102S-I-Ek (from UniProt P04224 26-216) (peptide-MHC)
pKd [1]: 3.69 | t1/2 [1]: 0.83 s

BioMCC(ASA)-I-Ek (from UniProt P04224 26-216) (peptide-MHC)
decrease of the staining signal after one hour at room temperature [2]: 5% | duration of calcium flux on planar lipid bilayer with ICAM-1 and B7-1 [3]: > 10 min | duration of calcium flux on planar lipid bilayer without ICAM-1 and B7-1 [3]: 3 min | peak of fura-2 excitation ratio (340 nm/380 nm) above the baseline; 5100 or 7900 photocrosslinked pMHCs per cell [3]: 2.5 fold | percent of the total TCRs on a T cell surface permanently bound [4]: 16%

MCC(Cy5)-I-Ek (from UniProt P04224 26-216) (peptide-MHC)
peak of fura-2 excitation ratio (340 nm/380 nm) above the baseline; 6100 standard agonist pMHCs per cell [3]: 2.5 fold

OVA(ASA)-Kb (from UniProt P01901 22-305) (peptide-MHC)
fold efficiency of staining against the null SIAAFASL(ASA)-Kb monomer [5]: > 10 fold

PE-conjugated MCC-I-Ek tetramer (from UniProt P04224 26-216) (peptide-MHC)
decrease of the staining signal after one hour at room temperature [2]: 50%

Source: patent publication US20140120557A1
